From patent US20140087995A1 (published 2014)
Numbered stars: 1 amine (or outer) side, 2 acyl side, 3 side chain; on linkers, the order of the positions; unused ones are H or OH. Bridge positions count the residues as written; N and C are the ends. Side chains are listed from the residue outwards. Ends that are not written are not given here. * marks the point of attachment. C20 diacid = O=C(O)CCCCCCCCCCCCCCCCCCC(=O)*; γGlu = O=C(O)[C@H](CCC(=O)[*:2])N[*:1]

T1: human calcitonin receptor (human, UniProt P30988 25-474)
T1 sequence (looked up): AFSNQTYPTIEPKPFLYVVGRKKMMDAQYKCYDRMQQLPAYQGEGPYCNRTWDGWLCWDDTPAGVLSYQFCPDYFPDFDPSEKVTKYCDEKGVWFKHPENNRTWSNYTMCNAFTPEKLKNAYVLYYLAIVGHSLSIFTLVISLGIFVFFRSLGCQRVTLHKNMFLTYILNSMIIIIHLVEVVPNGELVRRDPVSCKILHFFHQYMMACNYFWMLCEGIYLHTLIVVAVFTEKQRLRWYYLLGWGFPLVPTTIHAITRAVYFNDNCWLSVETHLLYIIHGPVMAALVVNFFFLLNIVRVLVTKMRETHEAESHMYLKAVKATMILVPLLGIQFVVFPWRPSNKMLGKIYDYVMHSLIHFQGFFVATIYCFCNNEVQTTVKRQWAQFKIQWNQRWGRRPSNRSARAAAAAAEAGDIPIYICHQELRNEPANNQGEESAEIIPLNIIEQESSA

B1: N^ε1-[(4S)-4-carboxy-4-(19-carboxynonadecanoylamino)butanoyl]-[Arg17,Pro21,Pro27,His35]-h-amylin (peptide)
peptide: K([γGlu-C20 diacid])CNTATCATQRLANFLRHSSPNFGAIPSSTNVGSHTY-NH2
modifications: disulfide 2-7; N-terminus assumed
SMILES: CC[C@H](C)[C@H](NC(=O)[C@H](C)NC(=O)CNC(=O)[C@H](Cc1ccccc1)NC(=O)[C@H](CC(N)=O)NC(=O)[C@@H]1CCCN1C(=O)[C@H](CO)NC(=O)[C@H](CO)NC(=O)[C@H](Cc1c[nH]cn1)NC(=O)[C@H](CCCNC(=N)N)NC(=O)[C@H](CC(C)C)NC(=O)[C@H](Cc1ccccc1)NC(=O)[C@H](CC(N)=O)NC(=O)[C@H](C)NC(=O)[C@H](CC(C)C)NC(=O)[C@H](CCCNC(=N)N)NC(=O)[C@H](CCC(N)=O)NC(=O)[C@@H](NC(=O)[C@H](C)NC(=O)[C@@H]1CSSC[C@H](NC(=O)[C@@H](N)CCCCNC(=O)CC[C@H](NC(=O)CCCCCCCCCCCCCCCCCCC(=O)O)C(=O)O)C(=O)N[C@@H](CC(N)=O)C(=O)N[C@@H]([C@@H](C)O)C(=O)N[C@@H](C)C(=O)N[C@@H]([C@@H](C)O)C(=O)N1)[C@@H](C)O)C(=O)N1CCC[C@H]1C(=O)N[C@@H](CO)C(=O)N[C@@H](CO)C(=O)N[C@H](C(=O)N[C@@H](CC(N)=O)C(=O)N[C@H](C(=O)NCC(=O)N[C@@H](CO)C(=O)N[C@@H](Cc1c[nH]cn1)C(=O)N[C@H](C(=O)N[C@@H](Cc1ccc(O)cc1)C(N)=O)[C@@H](C)O)C(C)C)[C@@H](C)O
notes: also called compound 60
B2: N^ε1-[(4S)-4-carboxy-4-(19-carboxynonadecanoylamino)butanoyl]-[His14,Arg17,Pro21,Pro27,His34]-h-amylin (peptide)
peptide: K([γGlu-C20 diacid])CNTATCATQRLAHFLRHSSPNFGAIPSSTNVGHNTY-NH2
modifications: disulfide 2-7; N-terminus assumed
SMILES: CC[C@H](C)[C@H](NC(=O)[C@H](C)NC(=O)CNC(=O)[C@H](Cc1ccccc1)NC(=O)[C@H](CC(N)=O)NC(=O)[C@@H]1CCCN1C(=O)[C@H](CO)NC(=O)[C@H](CO)NC(=O)[C@H](Cc1c[nH]cn1)NC(=O)[C@H](CCCNC(=N)N)NC(=O)[C@H](CC(C)C)NC(=O)[C@H](Cc1ccccc1)NC(=O)[C@H](Cc1c[nH]cn1)NC(=O)[C@H](C)NC(=O)[C@H](CC(C)C)NC(=O)[C@H](CCCNC(=N)N)NC(=O)[C@H](CCC(N)=O)NC(=O)[C@@H](NC(=O)[C@H](C)NC(=O)[C@@H]1CSSC[C@H](NC(=O)[C@@H](N)CCCCNC(=O)CC[C@H](NC(=O)CCCCCCCCCCCCCCCCCCC(=O)O)C(=O)O)C(=O)N[C@@H](CC(N)=O)C(=O)N[C@@H]([C@@H](C)O)C(=O)N[C@@H](C)C(=O)N[C@@H]([C@@H](C)O)C(=O)N1)[C@@H](C)O)C(=O)N1CCC[C@H]1C(=O)N[C@@H](CO)C(=O)N[C@@H](CO)C(=O)N[C@H](C(=O)N[C@@H](CC(N)=O)C(=O)N[C@H](C(=O)NCC(=O)N[C@@H](Cc1c[nH]cn1)C(=O)N[C@@H](CC(N)=O)C(=O)N[C@H](C(=O)N[C@@H](Cc1ccc(O)cc1)C(N)=O)[C@@H](C)O)C(C)C)[C@@H](C)O
notes: also called compound 81
B3: N^ε1-[(4S)-4-carboxy-4-[[(4S)-4-carboxy-4-(19-carboxynonadecanoylamino)butanoyl]amino]butanoyl]-[Arg17,Pro21,Pro27,His34]-h-amylin (peptide)
peptide: K([γGlu-γGlu-C20 diacid])CNTATCATQRLANFLRHSSPNFGAIPSSTNVGHNTY-NH2
modifications: disulfide 2-7; N-terminus assumed
SMILES: CC[C@H](C)[C@H](NC(=O)[C@H](C)NC(=O)CNC(=O)[C@H](Cc1ccccc1)NC(=O)[C@H](CC(N)=O)NC(=O)[C@@H]1CCCN1C(=O)[C@H](CO)NC(=O)[C@H](CO)NC(=O)[C@H](Cc1c[nH]cn1)NC(=O)[C@H](CCCNC(=N)N)NC(=O)[C@H](CC(C)C)NC(=O)[C@H](Cc1ccccc1)NC(=O)[C@H](CC(N)=O)NC(=O)[C@H](C)NC(=O)[C@H](CC(C)C)NC(=O)[C@H](CCCNC(=N)N)NC(=O)[C@H](CCC(N)=O)NC(=O)[C@@H](NC(=O)[C@H](C)NC(=O)[C@@H]1CSSC[C@H](NC(=O)[C@@H](N)CCCCNC(=O)CC[C@H](NC(=O)CC[C@H](NC(=O)CCCCCCCCCCCCCCCCCCC(=O)O)C(=O)O)C(=O)O)C(=O)N[C@@H](CC(N)=O)C(=O)N[C@@H]([C@@H](C)O)C(=O)N[C@@H](C)C(=O)N[C@@H]([C@@H](C)O)C(=O)N1)[C@@H](C)O)C(=O)N1CCC[C@H]1C(=O)N[C@@H](CO)C(=O)N[C@@H](CO)C(=O)N[C@H](C(=O)N[C@@H](CC(N)=O)C(=O)N[C@H](C(=O)NCC(=O)N[C@@H](Cc1c[nH]cn1)C(=O)N[C@@H](CC(N)=O)C(=O)N[C@H](C(=O)N[C@@H](Cc1ccc(O)cc1)C(N)=O)[C@@H](C)O)C(C)C)[C@@H](C)O
notes: also called compound 86
B4: N^ε1-[(4S)-4-carboxy-4-(19-carboxynonadecanoylamino)butanoyl]-[His14,Arg17,Pro21,Pro27,His35]-h-amylin (peptide)
peptide: K([γGlu-C20 diacid])CNTATCATQRLAHFLRHSSPNFGAIPSSTNVGSHTY-NH2
modifications: disulfide 2-7; N-terminus assumed
SMILES: CC[C@H](C)[C@H](NC(=O)[C@H](C)NC(=O)CNC(=O)[C@H](Cc1ccccc1)NC(=O)[C@H](CC(N)=O)NC(=O)[C@@H]1CCCN1C(=O)[C@H](CO)NC(=O)[C@H](CO)NC(=O)[C@H](Cc1c[nH]cn1)NC(=O)[C@H](CCCNC(=N)N)NC(=O)[C@H](CC(C)C)NC(=O)[C@H](Cc1ccccc1)NC(=O)[C@H](Cc1c[nH]cn1)NC(=O)[C@H](C)NC(=O)[C@H](CC(C)C)NC(=O)[C@H](CCCNC(=N)N)NC(=O)[C@H](CCC(N)=O)NC(=O)[C@@H](NC(=O)[C@H](C)NC(=O)[C@@H]1CSSC[C@H](NC(=O)[C@@H](N)CCCCNC(=O)CC[C@H](NC(=O)CCCCCCCCCCCCCCCCCCC(=O)O)C(=O)O)C(=O)N[C@@H](CC(N)=O)C(=O)N[C@@H]([C@@H](C)O)C(=O)N[C@@H](C)C(=O)N[C@@H]([C@@H](C)O)C(=O)N1)[C@@H](C)O)C(=O)N1CCC[C@H]1C(=O)N[C@@H](CO)C(=O)N[C@@H](CO)C(=O)N[C@H](C(=O)N[C@@H](CC(N)=O)C(=O)N[C@H](C(=O)NCC(=O)N[C@@H](CO)C(=O)N[C@@H](Cc1c[nH]cn1)C(=O)N[C@H](C(=O)N[C@@H](Cc1ccc(O)cc1)C(N)=O)[C@@H](C)O)C(C)C)[C@@H](C)O
notes: also called compound 66
B5: N^ε1-[(4S)-4-carboxy-4-(19-carboxynonadecanoylamino)butanoyl]-[His14,Arg17,Pro21,Pro27,Arg34]-h-amylin (peptide)
peptide: K([γGlu-C20 diacid])CNTATCATQRLAHFLRHSSPNFGAIPSSTNVGRNTY-NH2
modifications: disulfide 2-7; N-terminus assumed
SMILES: CC[C@H](C)[C@H](NC(=O)[C@H](C)NC(=O)CNC(=O)[C@H](Cc1ccccc1)NC(=O)[C@H](CC(N)=O)NC(=O)[C@@H]1CCCN1C(=O)[C@H](CO)NC(=O)[C@H](CO)NC(=O)[C@H](Cc1c[nH]cn1)NC(=O)[C@H](CCCNC(=N)N)NC(=O)[C@H](CC(C)C)NC(=O)[C@H](Cc1ccccc1)NC(=O)[C@H](Cc1c[nH]cn1)NC(=O)[C@H](C)NC(=O)[C@H](CC(C)C)NC(=O)[C@H](CCCNC(=N)N)NC(=O)[C@H](CCC(N)=O)NC(=O)[C@@H](NC(=O)[C@H](C)NC(=O)[C@@H]1CSSC[C@H](NC(=O)[C@@H](N)CCCCNC(=O)CC[C@H](NC(=O)CCCCCCCCCCCCCCCCCCC(=O)O)C(=O)O)C(=O)N[C@@H](CC(N)=O)C(=O)N[C@@H]([C@@H](C)O)C(=O)N[C@@H](C)C(=O)N[C@@H]([C@@H](C)O)C(=O)N1)[C@@H](C)O)C(=O)N1CCC[C@H]1C(=O)N[C@@H](CO)C(=O)N[C@@H](CO)C(=O)N[C@H](C(=O)N[C@@H](CC(N)=O)C(=O)N[C@H](C(=O)NCC(=O)N[C@@H](CCCNC(=N)N)C(=O)N[C@@H](CC(N)=O)C(=O)N[C@H](C(=O)N[C@@H](Cc1ccc(O)cc1)C(N)=O)[C@@H](C)O)C(C)C)[C@@H](C)O
notes: also called compound 85
B6: N^ε1-[(4S)-4-carboxy-4-(19-carboxynonadecanoylamino)butanoyl]-[His14,Arg17,Pro21,Pro27,Pro31]-h-amylin (peptide)
peptide: K([γGlu-C20 diacid])CNTATCATQRLAHFLRHSSPNFGAIPSSTPVGSNTY-NH2
modifications: disulfide 2-7; N-terminus assumed
SMILES: CC[C@H](C)[C@H](NC(=O)[C@H](C)NC(=O)CNC(=O)[C@H](Cc1ccccc1)NC(=O)[C@H](CC(N)=O)NC(=O)[C@@H]1CCCN1C(=O)[C@H](CO)NC(=O)[C@H](CO)NC(=O)[C@H](Cc1c[nH]cn1)NC(=O)[C@H](CCCNC(=N)N)NC(=O)[C@H](CC(C)C)NC(=O)[C@H](Cc1ccccc1)NC(=O)[C@H](Cc1c[nH]cn1)NC(=O)[C@H](C)NC(=O)[C@H](CC(C)C)NC(=O)[C@H](CCCNC(=N)N)NC(=O)[C@H](CCC(N)=O)NC(=O)[C@@H](NC(=O)[C@H](C)NC(=O)[C@@H]1CSSC[C@H](NC(=O)[C@@H](N)CCCCNC(=O)CC[C@H](NC(=O)CCCCCCCCCCCCCCCCCCC(=O)O)C(=O)O)C(=O)N[C@@H](CC(N)=O)C(=O)N[C@@H]([C@@H](C)O)C(=O)N[C@@H](C)C(=O)N[C@@H]([C@@H](C)O)C(=O)N1)[C@@H](C)O)C(=O)N1CCC[C@H]1C(=O)N[C@@H](CO)C(=O)N[C@@H](CO)C(=O)N[C@H](C(=O)N1CCC[C@H]1C(=O)N[C@H](C(=O)NCC(=O)N[C@@H](CO)C(=O)N[C@@H](CC(N)=O)C(=O)N[C@H](C(=O)N[C@@H](Cc1ccc(O)cc1)C(N)=O)[C@@H](C)O)C(C)C)[C@@H](C)O
notes: also called compound 62

These binders were tested against T1, human calcitonin receptor (assay: cell-based or functional assay).

hCTR funct. EC50 [nM] | Binder
5.36 | B1
1.73 | B2
19.2 | B3
0.542 | B4
3.88 | B5
0.539 | B6
